Test results: publication PMC6900184, “The Escherichia coli MarA protein regulates the ycgZ‐ymgABC operon to inhibit biofilm formation”

Molecular target: T1, MarA (Escherichia coli, UniProt P0ACH5 1-127)
T1 sequence: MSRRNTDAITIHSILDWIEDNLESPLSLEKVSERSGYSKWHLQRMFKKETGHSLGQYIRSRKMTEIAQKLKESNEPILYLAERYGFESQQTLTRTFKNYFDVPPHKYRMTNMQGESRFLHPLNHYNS
Experiment: EMSA; MarA 0.4, 1.2, 2.0 uM; EMSA: 20 mM Tris pH 7, 10 mM MgCl2, 100 mM EDTA (so in the source), 120 mM KCl; 5% polyacrylamide gel; temperature not stated
Details: protein: recombinant; tags: N-terminal His6 tag (pET28a) removed by thrombin; label: 5'-32P; 5' overhang 4 nt at both ends (EcoRI, HindIII)

B1: ycgZ.1m (dsDNA)
DNA 1: AATTCATATGCATTACGTCTAATTCGAAAAAATTAATTTATCATTCTGTACACATATTTCGTACAAGTTTGCTATTGTTACTTCACTTAACATTGATTAACATTTTTAACAGAGGCGTAGCATGA
DNA 2: AGCTTCATGCTACGCCTCTGTTAAAAATGTTAATCAATGTTAAGTGAAGTAACAATAGCAAACTTGTACGAAATATGTGTACAGAATGATAAATTAATTTTTTCGAATTAGACGTAATGCATATG
binding result: no binding
